From the supplement of paper PMC11316812
± gives the standard deviation of the averaged measurements.

Columns and labels:
hTERT-HMEC = test: percentage of EdU-negative (G0-arrested) nuclei per well, 72 h; higher = more G0 arrest; conditions: reference: sequence is the full UniProt precursor, the tested protein was the secreted form or ectodomain
MCF7 = test: as above; conditions: reference: sequence is the full UniProt precursor, the tested protein was the secreted form or ectodomain
[1] = protein concentration 0.03125 µM
[2] = protein concentration 0.3125 µM
[3] = protein concentration 0.0225 µM
[4] = protein concentration 0.01275 µM
[5] = protein concentration 0.1275 µM
[6] = protein concentration 0.00685714 µM
[7] = protein concentration 0.0685714 µM
[8] = protein concentration 0.01575 µM
[9] = protein concentration 0.1575 µM
[10] = protein concentration 0.0075 µM
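Further: secreted proteins added to cultured cells, EdU pulse at the end, nuclei found by Hoechst imaging, EdU status from nuclear versus surrounding ring intensity ratio, PBS as neutral control.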

Row | Sequence | percentage of EdU-negative (hTERT-HMEC; [3]) | percentage of EdU-negative (hTERT-HMEC; protein concentration 0.225 µM) | percentage of EdU-negative (MCF7; [3]) | percentage of EdU-negative (MCF7; protein concentration 0.225 µM) | other results
1 | MAAPALSWRLPLLILLLPLATSWASAAVNGTSQFTCFYNSRANISCVWSQDGALQDTSCQVHAWPDRRRWNQTCELLPVSQASWACNLILGAPDSQKLTTVDIVTLRVLCREGVRWRVMAIQDFKPFENLRLMAPISLQVVHVETHRCNISWEISQASHYFERHLEFEARTLSPGHTWEEAPLLTLKQKQEWICLETLTPDTQYEFQVRVKPLQGEFTTWSPWSQPLAFRTKPAALGKDTIPWLGHLLVGLSGAFGFIILVYLLINCRNTGPWLKKVLKCNTPDPSKFFSQLSSEHGGDVQKWLSSPFPSSSFSPGGLAPEISPLEVLERDKVTQLLLQQDKVPEPASLSSNHSLTSCFTNQGYFFFHLPDALEIEACQVYFTYDPYSEEDPDEGVAGAPTGSSPQPLQPLSGEDDAYCTFPSRDDLLLFSPSLLGGPSPPSTAPGGSGAGEERMPPSLQERVPRDWDPQPLGPPTPGVPDLVDFQPPPELVLREAGEEVPDAGPREGVSFPWSRPPGQGEFRALNARLPLNTDAYLSLQELQGQDPTHLV | – | – | – | – | percentage of EdU-negative (hTERT-HMEC; [1]): 4.64 ± 0.89%; percentage of EdU-negative (hTERT-HMEC; [2]): 4.91 ± 0.7%; percentage of EdU-negative (MCF7; [1]): 25.8 ± 3.7%; percentage of EdU-negative (MCF7; [2]): 26.1 ± 1.1%
2 | MAAPGSARRPLLLLLLLLLLGLMHCASAAMFMVKNGNGTACIMANFSAAFSVNYDTKSGPKNMTFDLPSDATVVLNRSSCGKENTSDPSLVIAFGRGHTLTLNFTRNATRYSVQLMSFVYNLSDTHLFPNASSKEIKTVESITDIRADIDKKYRCVSGTQVHMNNVTVTLHDATIQAYLSNSSFSRGETRCEQDRPSPTTAPPAPPSPSPSPVPKSPSVDKYNVSGTNGTCLLASMGLQLNLTYERKDNTTVTRLLNINPNKTSASGSCGAHLVTLELHSEGTTVLLFQFGMNASSSRFFLQGIQLNTILPDARDPAFKAANGSLRALQATVGNSYKCNAEEHVRVTKAFSVNIFKVWVQAFKVEGGQFGSVEECLLDENSMLIPIAVGGALAGLVLIVLIAYLVGRKRSHAGYQTI | 4.801 ± 0.044% | 7.68 ± 1.6% | 27.7 ± 2.6% | 28.6 ± 2.1% | –
3 | MAAPSGGWNGVGASLWAALLLGAVALRPAEAVSEPTTVAFDVRPGGVVHSFSHNVGPGDKYTCMFTYASQGGTNEQWQMSLGTSEDHQHFTCTIWRPQGKSYLYFTQFKAEVRGAEIEYAMAYSKAAFERESDVPLKTEEFEVTKTAVAHRPGAFKAELSKLVIVAKASRTEL [Q969H8] | – | – | – | – | percentage of EdU-negative (hTERT-HMEC; [1]): 4.64 ± 1%; percentage of EdU-negative (hTERT-HMEC; [2]): 5.57 ± 0.44%; percentage of EdU-negative (MCF7; [1]): 25.7 ± 1.8%; percentage of EdU-negative (MCF7; [2]): 24.42 ± 0.17%
4 | MAAPVPWACCAVLAAAAAVVYAQRHSPQEAPHVQYERLGSDVTLPCGTANWDAAVTWRVNGTDLAPDLLNGSQLVLHGLELGHSGLYACFHRDSWHLRHQVLLHVGLPPREPVLSCRSNTYPKGFYCSWHLPTPTYIPNTFNVTVLHGSKIMVCEKDPALKNRCHIRYMHLFSTIKYKVSISVSNALGHNATAITFDEFTIVKPDPPENVVARPVPSNPRRLEVTWQTPSTWPDPESFPLKFFLRYRPLILDQWQHVELSDGTAHTITDAYAGKEYIIQVAAKDNEIGTWSDWSVAAHATPWTEEPRHLTTEAQAAETTTSTTSSLAPPPTTKICDPGELGSGGGPSAPFLVSVPITLALAAAAATASSLLI | 5 ± 0.54% | 6.52 ± 0.21% | 25 ± 1.9% | 27.1 ± 2.6% | –
5 | MAAQGCAASRLLQLLLQLLLLLLLLAAGGARARWRGEGTSAHLRDIFLGRCAEYRALLSPEQRNKNCTAIWEAFKVALDKDPCSVLPSDYDLFINLSRHSIPRDKSLFWENSHLLVNSFADNTRRFMPLSDVLYGRVADFLSWCRQKNDSGLDYQSCPTSEDCENNPVDSFWKRASIQYSKDSSGVIHVMLNGSEPTGAYPIKGFFADYEIPNLQKEKITRIEIWVMHEIGGPNVESCGEGSMKVLEKRLKDMGFQYSCINDYRPVKLLQCVDHSTHPDCALKSAAAATQRKAPSLYTEQRAGLIIPLFLVLASRTQL | 5.33 ± 0.28% | 5.57 ± 1% | 25.74 ± 0.03% | 23.5 ± 0.97% | –
6 | MAARALCMLGLVLALLSSSSAEEYVGLSANQCAVPAKDRVDCGYPHVTPKECNNRGCCFDSRIPGVPWCFKPLQEAECTF | 4.3 ± 0.16% | 4.29 ± 0.22% | 26.62 ± 0.26% | 24 ± 0.99% | –
7 | MAARRSQRRRGRRGEPGTALLVPLALGLGLALACLGLLLAVVSLGSRASLSAQEPAQEELVAEEDQDPSELNPQTEESQDPAPFLNRLVRPRRSAPKGRKTRARRAIAAHYEVHPRPGQDGAQAGVDGTVSGWEEARINSSSPLRYNRQIGEFIVTRAGLYYLYCQVHFDEGKAVYLKLDLLVDGVLALRCLEEFSATAASSLGPQLRLCQVSGLLALRPGSSLRIRTLPWAHLKAAPFLTYFGLFQVH | 12.2 ± 2.6% | 13.4 ± 1.1% | 24.6 ± 1.4% | 24.3 ± 3.4% | –
8 | MAASRWARKAVVLLCASDLLLLLLLLPPPGSCAAEGSPGTPDESTPPPRKKKKDIRDYNDADMARLLEQWEKDDDIEEGDLPEHKRPSAPVDFSKIDPSKPESILKMTKKGKTLMMFVTVSGSPTEKETEEITSLWQGSLFNANYDVQRFIVGSDRAIFMLRDGSYAWEIKDFLVGQDRCADVTLEGQVYPGKGGGSKEKNKTKQDKGKKKKEGDLKSRSSKEENRAGNKREDL | 5.03 ± 0.66% | 11 ± 0.91% | 27.3 ± 3.2% | 27.3 ± 1% | –
9 | MAATSLMSALAARLLQPAHSCSLRLRPFHLAAVRNEAVVISGRKLAQQIKQEVRQEVEEWVASGNKRPHLSVILVGENPASHSYVLNKTRAAAVVGINSETIMKPASISEEELLNLINKLNNDDNVDGLLVQLPLPEHIDERRICNAVSPDKDVDGFHVINVGRMCLDQYSMLPATPWGVWEIIKRTGIPTLGKNVVVAGRSKNVGMPIAMLLHTDGAHERPGGDATVTISHRYTPKEQLKKHTILADIVISAAGIPNLITADMIKEGAAVIDVGINRVHDPVTAKPKLVGDVDFEGVRQKAGYITPVPGGVGPMTVAMLMKNTIIAAKKVLRLEEREVLKSKELGVATN | – | – | – | – | percentage of EdU-negative (hTERT-HMEC; [4]): 4.46 ± 0.17%; percentage of EdU-negative (hTERT-HMEC; [5]): 5.45 ± 0.4%; percentage of EdU-negative (MCF7; [4]): 24 ± 0.89%; percentage of EdU-negative (MCF7; [5]): 29 ± 2%
10 | MAAVRGAPLLSCLLALLALCPGGRPQTVLTDDEIEEFLEGFLSELEPEPREDDVEAPPPPEPTPRVRKAQAGGKPGKRPGTAAEVPPEKTKDKGKKGKKDKGPKVPKESLEGSPRPPKKGKEKPPKATKKPKEKPPKATKKPKEKPPKATKKPKEKPPKATKKPPSGKRPPILAPSETLEWPLPPPPSPGPEELPQEGGAPLSNNWQNPGEETHVEAREHQPEPEEETEQPTLDYNDQIEREDYEDFEYIRRQKQPRPPPSRRRRPERVWPEPPEEKAPAPAPEERIEPPVKPLLPPLPPDYGDGYVIPNYDDMDYYFGPPPPQKPDAERQTDEEKEELKKPKKEDSSPKEETDKWAVEKGKDHKEPRKGEELEEEWTPTEKVKCPPIGMESHRIEDNQIRASSMLRHGLGAQRGRLNMQTGATEDDYYDGAWCAEDDARTQWIEVDTRRTTRFTGVITQGRDSSIHDDFVTTFFVGFSNDSQTWVMYTNGYEEMTFHGNVDKDTPVLSELPEPVVARFIRIYPLTWNGSLCMRLEVLGCSVAPVYSYYAQNEVVATDDLDFRHHSYKDMRQLMKVVNEECPTITRTYSLGKSSRGLKIYAMEISDNPGEHELGEPEFRYTAGIHGNEVLGRELLLLLMQYLCREYRDGNPRVRSLVQDTRIHLVPSLNPDGYEVAAQMGSEFGNWALGLWTEEGFDIFEDFPDLNSVLWGAEERKWVPYRVPNNNLPIPERYLSPDATVSTEVRAIIAWMEKNPFVLGANLNGGERLVSYPYDMARTPTQEQLLAAAMAAARGEDEDEVSEAQETPDHAIFRWLAISFASAHLTLTEPYRGGCQAQDYTGGMGIVNGAKWNPRTGTINDFSYLHTNCLELSFYLGCDKFPHESELPREWENNKEALLTFMEQVHRGIKGVVTDEQGIPIANATISVSGINHGVKTASGGDYWRILNPGEYRVTAHAEGYTPSAKTCNVDYDIGATQCNFILARSNWKRIREIMAMNGNRPIPHIDPSRPMTPQQRRLQQRRLQHRLRLRAQMRLRRLNATTTLGPHTVPPTLPPAPATTLSTTIEPWGLIPPTTAGWEESETETYTEVVTEFGTEVEPEFGTKVEPEFETQLEPEFETQLEPEFEEEEEEEKEEEIATGQAFPFTTVETYTVNFGDF [Q8IUX7] | – | – | – | – | percentage of EdU-negative (hTERT-HMEC; [6]): 4.79 ± 0.43%; percentage of EdU-negative (hTERT-HMEC; [7]): 11.5 ± 0.62%; percentage of EdU-negative (MCF7; [6]): 24.8 ± 1.1%; percentage of EdU-negative (MCF7; [7]): 28.5 ± 0.34%
11 | MAAVVAATRWWQLLLVLSAAGMGASGAPQPPNILLLLMDDMGWGDLGVYGEPSRETPNLDRMAAEGLLFPNFYSANPLCSPSRAALLTGRLPIRNGFYTTNAHARNAYTPQEIVGGIPDSEQLLPELLKKAGYVSKIVGKWHLGHRPQFHPLKHGFDEWFGSPNCHFGPYDNKARPNIPVYRDWEMVGRYYEEFPINLKTGEANLTQIYLQEALDFIKRQARHHPFFLYWAVDATHAPVYASKPFLGTSQRGRYGDAVREIDDSIGKILELLQDLHVADNTFVFFTSDNGAALISAPEQGGSNGPFLCGKQTTFEGGMREPALAWWPGHVTAGQVSHQLGSIMDLFTTSLALAGLTPPSDRAIDGLNLLPTLLQGRLMDRPIFYYRGDTLMAATLGQHKAHFWTWTNSWENFRQGIDFCPGQNVSGVTTHNLEDHTKLPLIFHLGRDPGERFPLSFASAEYQEALSRITSVVQQHQEALVPAQPQLNVCNWAVMNWAPPGCEKLGKCLTPPESIPKKCLWSH | – | – | – | – | percentage of EdU-negative (hTERT-HMEC; [8]): 5.59 ± 0.71%; percentage of EdU-negative (hTERT-HMEC; [9]): 24.2 ± 1.3%; percentage of EdU-negative (MCF7; [8]): 27.9 ± 1.1%; percentage of EdU-negative (MCF7; [9]): 26.9 ± 0.35%
12 | MAAWSPAAAAPLLRGIRGLPLHHRMFATQTEGELRVTQILKEKFPRATAIKVTDISGGCGAMYEIKIESEEFKEKRTVQQHQMVNQALKEEIKEMHGLRIFTSVPKR [Q53S33] | 4.56 ± 0.98% | 5.94 ± 0.72% | 26.66 ± 0.12% | 26.7 ± 1.7% | –
13 | MACWWPLLLELWTVMPTWAGDELLNICMNAKHHKRVPSPEDKLYEECIPWKDNACCTLTTSWEAHLDVSPLYNFSLFHCGLLMPGCRKHFIQAICFYECSPNLGPWIQPVGSLGWEVAPSGQGERVVNVPLCQEDCEEWWEDCRMSYTCKSNWRGGWDWSQGKNRCPKGAQCLPFSHYFPTPADLCEKTWSNSFKASPERRNSGRCLQKWFEPAQGNPNVAVARLFASSAPSWELSYTIMVCSLFLPFLS [A6ND01] | – | – | – | – | percentage of EdU-negative (hTERT-HMEC; [10]): 5.08 ± 0.06%; percentage of EdU-negative (hTERT-HMEC; protein concentration 0.075 µM): 7.68 ± 0.15%; percentage of EdU-negative (MCF7; [10]): 24.06 ± 0.21%; percentage of EdU-negative (MCF7; protein concentration 0.075 µM): 25.05 ± 0.12%
